Several values for one entry are separate records, joined by “and”; a condition that tells them apart may be missing. Equal entries are not always repeated.
What was measured:
GST-EphA2 [1] = target: T1, GST-EphA2 (UniProt P29317 24-976); assay: ELISA; 200 ng GST-EphA2 coated on 96-well plates overnight at 4 °C, blocked with 5% BSA in PBS; gradient concentrations of 6×His proteins, 2 h at room temperature; anti-His or anti-GST antibody, HRP secondary, absorbance at 450 nm; conditions: both partners purified
T1 construct: EphA2; The methods name both pGEX6p-1-GST/His and pET28a as the vector; also called glutathione S-transferase (GST)-EphA2

GST-EphA2 [2] = target: T1, GST-EphA2; assay: ELISA; as the ELISA on GST-EphA2-coated plates, gH/gL or gB incubated in the presence of IFITM1 (concentration of IFITM1 not stated); conditions: both partners purified

B1: 6×His-gB (natural protein)
chain: AQTPEQPAPPATTVQPTATRQQTSFPFRVCELSSHGDLFRFSSDIQCPSFGTRENHTEGLLMVFKDNIIPYSFKVRSYTKIVTNILIYNGWYADSVTNRHEEKFSVDSYETDQMDTIYQCYNAVKMTKDGLTRVYVDRDGVNITVNLKPTGGLANGVRRYASQTELYDAPGWLIWTYRTRTTVNCLITDMMAKSNSPFDFFVTTTGQTVEMSPFYDGKNKETFHERADSFHVRTNYKIVDYDNRGTNPQGERRAFLDKGTYTLSWKLENRTAYCPLQHWQTFDSTIATETGKSIHFVTDEGTSSFVTNTTVGIELPDAFKCIEEQVNKTMHEKYEAVQDRYTKGQEAITYFITSGGLLLAWLPLTPRSLATVKNLTELTTPTSSPPSSPSPPAPSAARGSTPAAVLRRRRRDAGNATTPVPPTAPGKSLGTLNNPATVQIQFAYDSLRRQINRMLGDLARAWCLEQKRQNMVLRELTKINPTTVMSSIYGKAVAAKRLGDVISVSQCVPVNQATVTLRKSMRVPGSETMCYSRPLVSFSFINDTKTYEGQLGTDNEIFLTKKMTEVCQATSQYYFQSGNEIHVYNDYHHFKTIELDGIATLQTFISLNTSLIENIDFASLELYSRDEQRASNVFDLEGIFREYNFQAQNIAGLRKDLDNAVSNGRNQFVDGLGELMDSLGSVGQSITNLVSTVGGLFSSLVSGFISFFKNPFGGMLILVLVAGVVILVISLTRRTRQMSQQPVQMLYPGIDELAQQHASGEGPGINPISKTELQAIMLALHEQNQEQKRAAQRAAGPSVASRALQAARDRFPGLRRRRYHDPETAAALLGEAETEF
EC50 (GST-EphA2 [1]): 41.7 nM and 39.6 nM | EC50 with IFITM1 (GST-EphA2 [2]): 84.3 nM

From paper PMC11087256, “Interferon-induced transmembrane protein-1 competitively blocks Ephrin receptor A2-mediated Epstein–Barr virus entry into epithelial cells” (Nature Microbiology, 2024)
